Measured values reported in article PMC4940141 (Nature, 2016).

Key:
Assay in all cases: cryo-EM structure
TBP = TBP (human, UniProt P20226 1-339)
RPB2 = RPB2 (human (endogenous in HeLa), UniProt P30876 1-1174)
RPB1 = RPB1 (human (endogenous in HeLa), UniProt P24928 1-1970)

TBP, sequence (P20226 whole entry): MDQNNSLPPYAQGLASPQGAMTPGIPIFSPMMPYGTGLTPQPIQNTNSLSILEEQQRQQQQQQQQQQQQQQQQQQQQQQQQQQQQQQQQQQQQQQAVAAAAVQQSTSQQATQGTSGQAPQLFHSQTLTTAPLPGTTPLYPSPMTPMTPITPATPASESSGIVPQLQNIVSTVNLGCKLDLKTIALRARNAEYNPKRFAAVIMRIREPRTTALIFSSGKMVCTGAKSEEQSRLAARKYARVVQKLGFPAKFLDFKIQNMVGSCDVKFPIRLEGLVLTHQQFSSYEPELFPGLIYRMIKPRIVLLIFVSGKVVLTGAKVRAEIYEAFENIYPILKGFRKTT

B1: RAP30 (natural protein, human)
chain: MAERGELDLTGAKQNTGVWLVKVPKYLSQQWAKASGRGEVGKLRIAKTQGRTEVSFTLNEDLANIHDIGGKPASVSAPREHPFVLQSVGGQTLTVFTESSSDKLSLEGIVVQRAECRPAASENYMRLKRLQIEESSKPVRLSQQLDKVVTTNYKPVANHQYNIEYERKKKEDGKRARADKQHVLDMLFSAFEKHQYYNLKDLVDITKQPVVYLKEILKEIGVQNVKGIHKNTWELKPEYRHYQGEEKSD
What does the source list for B1?
binding result (TBP): binds; binding result (RPB2): binds

B2: TFIIEα (natural protein)
chain: MADPDVLTEVPAALKRLAKYVIRGFYGIEHALALDILIRNSCVKEEDMLELLKFDRKQLRSVLNNLKGDKFIKCRMRVETAADGKTTRHNYYFINYRTLVNVVKYKLDHMRRRIETDERDSTNRASFKCPVCSSTFTDLEANQLFDPMTGTFRCTFCHTEVEEDESAMPKKDARTLLARFNEQIEPIYALLRETEDVNLAYEILEPEPTEIPALKQSKDHAATTAGAASLAGGHHREAWATKGPSYEDLYTQNVVINMDDQEDLHRASLEGKSAKERPIWLRESTVQGAYGSEDMKEGGIDMDAFQEREEGHAGPDDNEEVMRALLIHEKKTSSAMAGSVGAAAPVTAANGSDSESETSESDDDSPPRPAAVAVHKREEDEEEDDEFEEVADDPIVMVAGRPFSYSEVSQRPELVAQMTPEEKEAYIAMGQRMFEDLFE
Does B2 bind (RPB1)?
Result: binds
